B1: library; numbered along this chain (parent)
chain: MAAAGGARLLRAASAVLGGPAGRWLHHAGSRAGSSGLLRNRGPGGSAEASRSLSVSARARSSSEDKITVHFINRDGETLTTKGKVGDSLLDVVVENNLDIDGFGACEGTLACSTCHLIFEDHIYEKLDAITDEENDMLDLAYGLTDRSRLGCQICLTKSMDNMTVRVPETVADARQSIDVGKTS

Variants of: B1
Experiment: scaled log2 fold change in cell abundance, elesclomol vs control (0 = silent mean, 1 = nonsense mean) (scaled log2 ratio); higher = higher viability under elesclomol (loss of FDX1 cuproptosis function)
Conditions: glucose 10 mM
[1] = with ABC1 FDX1 KO, elesclomol 5 nM, 14 days
[2] = with HEK293T FDX1 KO, elesclomol 40 nM, 11 days
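Note: variant abundance is its share of total variant reads in each endpoint sample, from next-generation sequencing of the integrated ORF PCR-amplified out of genomic DNA.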

## A111Y
[1]
  scaled log2 fold change: -1.01
[2]
  scaled log2 fold change: 0.214

## A111H
[1]
  scaled log2 fold change: -0.198

## A111L
[1]
  scaled log2 fold change: 0.263
[2]
  scaled log2 fold change: 0.862

## A111C
[1]
  scaled log2 fold change: -0.264
[2]
  scaled log2 fold change: 2.92

## A111W
[1]
  scaled log2 fold change: 0.0852
[2]
  scaled log2 fold change: 0.773

## A111S
[1]
  scaled log2 fold change: 0.397
[2]
  scaled log2 fold change: -0.445

## A111F
[1]
  scaled log2 fold change: -1.42
[2]
  scaled log2 fold change: 0.414

## A111D
[1]
  scaled log2 fold change: -0.231
[2]
  scaled log2 fold change: 0.497

## A111I
[1]
  scaled log2 fold change: -0.421
[2]
  scaled log2 fold change: -0.0909

## A111K
[1]
  scaled log2 fold change: -0.155
[2]
  scaled log2 fold change: 0.541

## A111V
[1]
  scaled log2 fold change: -0.00247
[2]
  scaled log2 fold change: -0.469

## A111E
[1]
  scaled log2 fold change: -0.193
[2]
  scaled log2 fold change: 1.05

## A111T
[1]
  scaled log2 fold change: 0.105
[2]
  scaled log2 fold change: -0.0821

## A111Q
[1]
  scaled log2 fold change: -0.0306
[2]
  scaled log2 fold change: -0.173

## A111M
[1]
  scaled log2 fold change: -0.315
[2]
  scaled log2 fold change: 1.22

## A111G
[1]
  scaled log2 fold change: -0.0345
[2]
  scaled log2 fold change: 0.231

## A111R
[1]
  scaled log2 fold change: -0.24

## A111N
[1]
  scaled log2 fold change: -0.0992
[2]
  scaled log2 fold change: 0.0245

## A111P
[1]
  scaled log2 fold change: 1.2
[2]
  scaled log2 fold change: 1.01

## C106R
[1]
  scaled log2 fold change: 1.07
[2]
  scaled log2 fold change: 1.14

## C106K
[1]
  scaled log2 fold change: 1.09
[2]
  scaled log2 fold change: 1.38

## C106W
[1]
  scaled log2 fold change: 1.05
[2]
  scaled log2 fold change: 1.27

## C106H
[1]
  scaled log2 fold change: 1.11
[2]
  scaled log2 fold change: 1

## C106T
[1]
  scaled log2 fold change: 1.19
[2]
  scaled log2 fold change: 1.27

## C106F
[1]
  scaled log2 fold change: 1.03
[2]
  scaled log2 fold change: 1.44

## C106G
[1]
  scaled log2 fold change: 1.07
[2]
  scaled log2 fold change: 1.6

## C106D
[1]
  scaled log2 fold change: 1.03
[2]
  scaled log2 fold change: 1.3

## C106S
[1]
  scaled log2 fold change: 1.19
[2]
  scaled log2 fold change: 1.14

## C106N
[1]
  scaled log2 fold change: 1.18
[2]
  scaled log2 fold change: 0.906

## C106I
[1]
  scaled log2 fold change: 1.16
[2]
  scaled log2 fold change: 1.5

## C106E
[1]
  scaled log2 fold change: 1.06
[2]
  scaled log2 fold change: 1.3

## C106A
[1]
  scaled log2 fold change: 1.03
[2]
  scaled log2 fold change: 1.51

## C106Y
[1]
  scaled log2 fold change: 1.17
[2]
  scaled log2 fold change: 1.2

## C106V
[1]
  scaled log2 fold change: 1.17
[2]
  scaled log2 fold change: 1.11

## C106L
[1]
  scaled log2 fold change: 1.09
[2]
  scaled log2 fold change: 1.32

## C106P
[1]
  scaled log2 fold change: 1.07
[2]
  scaled log2 fold change: 0.899

## C106Q
[1]
  scaled log2 fold change: 0.973
[2]
  scaled log2 fold change: 1.99

## C106M
[1]
  scaled log2 fold change: 1.1
[2]
  scaled log2 fold change: 1.09

## C112P
[1]
  scaled log2 fold change: 1.17
[2]
  scaled log2 fold change: 0.87

## C112A
[1]
  scaled log2 fold change: 1.16
[2]
  scaled log2 fold change: 1.03

## C112Q
[1]
  scaled log2 fold change: 1.01
[2]
  scaled log2 fold change: 1.1

## C112G
[1]
  scaled log2 fold change: 1.15
[2]
  scaled log2 fold change: 1.18

## C112E
[1]
  scaled log2 fold change: 1.07
[2]
  scaled log2 fold change: 0.951

## C112W
[1]
  scaled log2 fold change: 1.17
[2]
  scaled log2 fold change: 0.573

## C112R
[1]
  scaled log2 fold change: 1.08
[2]
  scaled log2 fold change: 1.29

## C112H
[1]
  scaled log2 fold change: 0.978
[2]
  scaled log2 fold change: 1.42

## C112I
[1]
  scaled log2 fold change: 0.989
[2]
  scaled log2 fold change: 1.33

## C112S
[1]
  scaled log2 fold change: 0.988
[2]
  scaled log2 fold change: 0.991

## C112M
[1]
  scaled log2 fold change: 1.09
[2]
  scaled log2 fold change: 1.24

## C112D
[1]
  scaled log2 fold change: 0.906
[2]
  scaled log2 fold change: 2.02

## C112Y
[1]
  scaled log2 fold change: 1.09
[2]
  scaled log2 fold change: 1.3

## C112L
[1]
  scaled log2 fold change: 0.979
[2]
  scaled log2 fold change: 1.26

## C112N
[1]
  scaled log2 fold change: 0.953
[2]
  scaled log2 fold change: 1.22

## C112F
[1]
  scaled log2 fold change: 1.02
[2]
  scaled log2 fold change: 1.25

## C112T
[1]
  scaled log2 fold change: 1.16
[2]
  scaled log2 fold change: 0.679

## C112K
[1]
  scaled log2 fold change: 1.12
[2]
  scaled log2 fold change: 1.35

## C112V
[1]
  scaled log2 fold change: 1.21
[2]
  scaled log2 fold change: 1.04

## L110S
[1]
  scaled log2 fold change: -0.279
[2]
  scaled log2 fold change: 1.18

## L110V
[1]
  scaled log2 fold change: 0.108
[2]
  scaled log2 fold change: -0.578

## L110M
[1]
  scaled log2 fold change: 0.297
[2]
  scaled log2 fold change: 0.602

## L110N
[1]
  scaled log2 fold change: 0.111
[2]
  scaled log2 fold change: -0.0165

## L110P
[1]
  scaled log2 fold change: 0.33
[2]
  scaled log2 fold change: -0.14

## L110T
[1]
  scaled log2 fold change: 0.401
[2]
  scaled log2 fold change: 0.383

## L110E
[1]
  scaled log2 fold change: 0.704
[2]
  scaled log2 fold change: 0.547

## L110Q
[1]
  scaled log2 fold change: -0.0207
[2]
  scaled log2 fold change: -0.0815

## L110R
[1]
  scaled log2 fold change: -0.0668
[2]
  scaled log2 fold change: 1.07

## L110D
[1]
  scaled log2 fold change: 0.955
[2]
  scaled log2 fold change: 0.687

## L110C
[1]
  scaled log2 fold change: 0.439
[2]
  scaled log2 fold change: -1.38

## L110K
[1]
  scaled log2 fold change: 0.374
[2]
  scaled log2 fold change: -0.159

## L110G
[1]
  scaled log2 fold change: -1.14
[2]
  scaled log2 fold change: -0.656

## L110Y
[1]
  scaled log2 fold change: 0.609
[2]
  scaled log2 fold change: 0.0828

## L110W
[1]
  scaled log2 fold change: 0.568
[2]
  scaled log2 fold change: 0.351

## L110A
[1]
  scaled log2 fold change: 0.303
[2]
  scaled log2 fold change: -0.448

## L110I
[1]
  scaled log2 fold change: -0.0941
[2]
  scaled log2 fold change: -0.421

## L110F
[1]
  scaled log2 fold change: 0.167
[2]
  scaled log2 fold change: 0.528

## L110H
[1]
  scaled log2 fold change: 0.0622
[2]
  scaled log2 fold change: 0.156

## F103R
[1]
  scaled log2 fold change: 1.09
[2]
  scaled log2 fold change: 1.06

## F103W
[1]
  scaled log2 fold change: 0.392
[2]
  scaled log2 fold change: -1.07

## F103A
[1]
  scaled log2 fold change: 0.92
[2]
  scaled log2 fold change: 0.527

## F103D
[1]
  scaled log2 fold change: 1.07
[2]
  scaled log2 fold change: 0.779

## F103H
[1]
  scaled log2 fold change: 0.673
[2]
  scaled log2 fold change: 1.17

## F103S
[1]
  scaled log2 fold change: 0.912
[2]
  scaled log2 fold change: 0.923

## F103M
[1]
  scaled log2 fold change: 0.347
[2]
  scaled log2 fold change: 0.516

## F103C
[1]
  scaled log2 fold change: 0.693
[2]
  scaled log2 fold change: 0.536

## F103L
[1]
  scaled log2 fold change: 0.27
[2]
  scaled log2 fold change: 0.542

## F103Q
[1]
  scaled log2 fold change: 0.935
[2]
  scaled log2 fold change: 1.02

## F103T
[1]
  scaled log2 fold change: 1.16
[2]
  scaled log2 fold change: 0.355

## F103N
[1]
  scaled log2 fold change: 1.06
[2]
  scaled log2 fold change: 1.03

## F103K
[1]
  scaled log2 fold change: 1.2
[2]
  scaled log2 fold change: 1.14

## F103V
[1]
  scaled log2 fold change: 0.282
[2]
  scaled log2 fold change: -0.441

## F103I
[1]
  scaled log2 fold change: 0.186
[2]
  scaled log2 fold change: 0.171

## F103Y
[1]
  scaled log2 fold change: 0.192
[2]
  scaled log2 fold change: -0.0547

## F103P
[1]
  scaled log2 fold change: 1.14
[2]
  scaled log2 fold change: 1.17

## F103E
[1]
  scaled log2 fold change: 0.983
[2]
  scaled log2 fold change: 0.679

## F103G
[1]
  scaled log2 fold change: 1.04
[2]
  scaled log2 fold change: 2.28

## S113A
[1]
  scaled log2 fold change: 0.165
[2]
  scaled log2 fold change: -0.251

## S113C
[1]
  scaled log2 fold change: -0.028
[2]
  scaled log2 fold change: 0.699

## G102M
[1]
  scaled log2 fold change: -0.196
[2]
  scaled log2 fold change: -0.665

## G102W
[1]
  scaled log2 fold change: 0.225
[2]
  scaled log2 fold change: 0.879

## G102I
[1]
  scaled log2 fold change: 0.0866
[2]
  scaled log2 fold change: 0.0202

## G102P
[1]
  scaled log2 fold change: 0.0181
[2]
  scaled log2 fold change: -0.00988

## G102C
[1]
  scaled log2 fold change: 0.0125
[2]
  scaled log2 fold change: 0.0278

## G102F
[1]
  scaled log2 fold change: -0.00949
[2]
  scaled log2 fold change: -0.289

## G102E
[1]
  scaled log2 fold change: 0.427
[2]
  scaled log2 fold change: -0.163

## G102N
[1]
  scaled log2 fold change: -0.336
[2]
  scaled log2 fold change: 0.807

## G102T
[1]
  scaled log2 fold change: -0.0667
[2]
  scaled log2 fold change: 2.33

## G102H
[1]
  scaled log2 fold change: 0.0379
[2]
  scaled log2 fold change: 0.869

## G102D
[1]
  scaled log2 fold change: -0.0623
[2]
  scaled log2 fold change: -0.526

## G102Q
[1]
  scaled log2 fold change: -0.0113
[2]
  scaled log2 fold change: 0.76

## G102S
[1]
  scaled log2 fold change: 0.293
[2]
  scaled log2 fold change: 0.861

## G102Y
[1]
  scaled log2 fold change: 0.333
[2]
  scaled log2 fold change: -0.0235

## G102V
[1]
  scaled log2 fold change: 0.298
[2]
  scaled log2 fold change: -0.174

## G102R
[1]
  scaled log2 fold change: 0.164
[2]
  scaled log2 fold change: -1.7

## G102K
[1]
  scaled log2 fold change: 0.473
[2]
  scaled log2 fold change: -0.277

## G102A
[1]
  scaled log2 fold change: 0.0393
[2]
  scaled log2 fold change: -0.812

## G102L
[1]
  scaled log2 fold change: 0.0952
[2]
  scaled log2 fold change: -0.752

Source: the supplement of paper PMC12855868
